# Where no end group is shown, it is not given here.
# T1: Recombinant SIG-10 Fc-fusion protein (R&D Systems) (human, UniProt Q96LC7 17-546, limits assumed)
# T1 construct: Bought from R&D Systems; Held on the plate by protein A; not shown: Fc part of the bought fusion protein
# T1 sequence (looked up): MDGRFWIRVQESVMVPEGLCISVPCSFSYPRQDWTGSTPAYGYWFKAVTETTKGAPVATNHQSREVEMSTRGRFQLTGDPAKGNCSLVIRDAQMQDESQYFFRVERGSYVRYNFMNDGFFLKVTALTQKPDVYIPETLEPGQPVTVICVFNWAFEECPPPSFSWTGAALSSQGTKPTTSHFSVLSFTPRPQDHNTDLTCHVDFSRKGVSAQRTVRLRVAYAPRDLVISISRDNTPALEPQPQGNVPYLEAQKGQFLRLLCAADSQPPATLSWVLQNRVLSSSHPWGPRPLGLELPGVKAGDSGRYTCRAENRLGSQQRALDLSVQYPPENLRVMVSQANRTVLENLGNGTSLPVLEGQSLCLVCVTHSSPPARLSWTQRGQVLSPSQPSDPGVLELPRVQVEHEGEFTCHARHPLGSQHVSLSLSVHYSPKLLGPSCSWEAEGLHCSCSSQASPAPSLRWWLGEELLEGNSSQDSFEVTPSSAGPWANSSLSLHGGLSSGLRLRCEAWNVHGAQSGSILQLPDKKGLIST
# Columns and labels:
# [1] = target: T2, Seq11 (recombinant vWF fragment AA 1-505 of SEQ ID NO: 1 with C-terminal Strep-Tag, from HEK 293) (human, UniProt P04275 764-1268, four O-glycosylation sites 485, 492, 493, 500 occupied (core 1, core 2 and/or extended core 1, sialylated)); assay: SIGLEC ELISA, Scatchard analysis of the binding curve (apparent KD)
# T2 construct: Expressed in HEK293 / MEXi-293 cells, purified on Strep-Tactin; not shown: C-terminal Twin-Strep-tag of the pDSG vector (IBA)
# [2] = target: T2, Seq11 (recombinant vWF fragment AA …); assay: SIGLEC ELISA with Scatchard analysis (GraphPad Prism); no unit beside the number, concentration axis in µM [panel SIGLEC 5]
# [3] = target: T3, vWF C-terminal fragment (V8 protease digest of plasma derived vWF) (human, UniProt P04275 2129-2813, biotinylated with EZ-Link Sulfo-NHS-Biotin); assay: ELISA: SIGLEC-Fc captured on a protein A plate (500 ng/well), biotinylated vWF fragment at 1 µg/mL, streptavidin-HRP, A492, single concentration
# T3 construct: the real molecule is only its C-terminal part; also called C-terminal vWF fragment
# [4] = target: T2, Seq11 (recombinant vWF fragment AA …); assay: SIGLEC ELISA with Scatchard analysis (GraphPad Prism); no unit beside the number, concentration axis in µM [panel SIGLEC 7]
# [5] = target: T2, Seq11 (recombinant vWF fragment AA …); assay: SIGLEC ELISA with Scatchard analysis (GraphPad Prism); no unit beside the number, concentration axis in µM [panel SIGLEC 9]
# [6] = target: T4, full length plasmatic VWF (Wilate, Octapharma) (human, UniProt P04275 764-2813); assay: SPR (Biacore 3000): VWF immobilised on a CM5 chip by amine coupling, FVIII injected 0.2-45 nM; mean of five measurements
# T4 construct: multimer
# [7] = target: T1, Recombinant SIG-10 Fc-fusion protein …; assay: ELISA: SIGLEC-Fc captured on a protein A plate (500 ng/well), biotinylated cluster fragment at 4 µg/mL, streptavidin-HRP, A492, single concentration
# T2 sequence (P04275 764-1268): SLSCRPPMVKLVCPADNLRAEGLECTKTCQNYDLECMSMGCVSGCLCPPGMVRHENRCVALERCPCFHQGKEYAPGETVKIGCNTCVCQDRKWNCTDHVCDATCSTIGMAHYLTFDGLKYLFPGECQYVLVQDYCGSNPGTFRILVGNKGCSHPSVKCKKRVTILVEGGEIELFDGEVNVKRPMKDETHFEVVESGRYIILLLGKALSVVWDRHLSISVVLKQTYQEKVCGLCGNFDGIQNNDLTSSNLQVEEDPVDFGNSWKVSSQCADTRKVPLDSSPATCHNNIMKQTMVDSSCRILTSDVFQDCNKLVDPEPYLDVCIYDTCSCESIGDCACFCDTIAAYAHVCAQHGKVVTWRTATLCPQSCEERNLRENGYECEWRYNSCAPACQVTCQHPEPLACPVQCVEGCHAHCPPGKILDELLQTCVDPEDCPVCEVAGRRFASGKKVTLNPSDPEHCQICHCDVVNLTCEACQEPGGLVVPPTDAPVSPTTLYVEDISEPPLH
# T3 sequence (P04275 2129-2813 limits assumed): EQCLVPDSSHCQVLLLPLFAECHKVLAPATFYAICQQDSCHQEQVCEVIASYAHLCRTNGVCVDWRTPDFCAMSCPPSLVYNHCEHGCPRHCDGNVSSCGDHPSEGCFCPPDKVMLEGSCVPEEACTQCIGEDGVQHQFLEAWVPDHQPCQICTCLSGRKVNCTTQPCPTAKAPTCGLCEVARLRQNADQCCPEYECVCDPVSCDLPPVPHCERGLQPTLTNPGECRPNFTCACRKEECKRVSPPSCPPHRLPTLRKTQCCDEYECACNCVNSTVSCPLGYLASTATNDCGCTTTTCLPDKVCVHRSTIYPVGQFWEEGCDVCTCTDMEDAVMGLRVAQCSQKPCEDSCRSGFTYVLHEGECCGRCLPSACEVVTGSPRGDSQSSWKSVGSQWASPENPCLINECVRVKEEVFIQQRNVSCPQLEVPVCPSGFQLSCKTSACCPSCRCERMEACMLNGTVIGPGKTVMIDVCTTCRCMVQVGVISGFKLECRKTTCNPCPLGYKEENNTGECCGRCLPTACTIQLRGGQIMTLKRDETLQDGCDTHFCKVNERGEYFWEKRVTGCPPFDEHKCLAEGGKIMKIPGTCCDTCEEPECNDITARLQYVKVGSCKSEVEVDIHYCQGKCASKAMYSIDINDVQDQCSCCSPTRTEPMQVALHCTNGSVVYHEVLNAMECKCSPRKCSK
# T4 sequence (P04275 764-2813 limits assumed): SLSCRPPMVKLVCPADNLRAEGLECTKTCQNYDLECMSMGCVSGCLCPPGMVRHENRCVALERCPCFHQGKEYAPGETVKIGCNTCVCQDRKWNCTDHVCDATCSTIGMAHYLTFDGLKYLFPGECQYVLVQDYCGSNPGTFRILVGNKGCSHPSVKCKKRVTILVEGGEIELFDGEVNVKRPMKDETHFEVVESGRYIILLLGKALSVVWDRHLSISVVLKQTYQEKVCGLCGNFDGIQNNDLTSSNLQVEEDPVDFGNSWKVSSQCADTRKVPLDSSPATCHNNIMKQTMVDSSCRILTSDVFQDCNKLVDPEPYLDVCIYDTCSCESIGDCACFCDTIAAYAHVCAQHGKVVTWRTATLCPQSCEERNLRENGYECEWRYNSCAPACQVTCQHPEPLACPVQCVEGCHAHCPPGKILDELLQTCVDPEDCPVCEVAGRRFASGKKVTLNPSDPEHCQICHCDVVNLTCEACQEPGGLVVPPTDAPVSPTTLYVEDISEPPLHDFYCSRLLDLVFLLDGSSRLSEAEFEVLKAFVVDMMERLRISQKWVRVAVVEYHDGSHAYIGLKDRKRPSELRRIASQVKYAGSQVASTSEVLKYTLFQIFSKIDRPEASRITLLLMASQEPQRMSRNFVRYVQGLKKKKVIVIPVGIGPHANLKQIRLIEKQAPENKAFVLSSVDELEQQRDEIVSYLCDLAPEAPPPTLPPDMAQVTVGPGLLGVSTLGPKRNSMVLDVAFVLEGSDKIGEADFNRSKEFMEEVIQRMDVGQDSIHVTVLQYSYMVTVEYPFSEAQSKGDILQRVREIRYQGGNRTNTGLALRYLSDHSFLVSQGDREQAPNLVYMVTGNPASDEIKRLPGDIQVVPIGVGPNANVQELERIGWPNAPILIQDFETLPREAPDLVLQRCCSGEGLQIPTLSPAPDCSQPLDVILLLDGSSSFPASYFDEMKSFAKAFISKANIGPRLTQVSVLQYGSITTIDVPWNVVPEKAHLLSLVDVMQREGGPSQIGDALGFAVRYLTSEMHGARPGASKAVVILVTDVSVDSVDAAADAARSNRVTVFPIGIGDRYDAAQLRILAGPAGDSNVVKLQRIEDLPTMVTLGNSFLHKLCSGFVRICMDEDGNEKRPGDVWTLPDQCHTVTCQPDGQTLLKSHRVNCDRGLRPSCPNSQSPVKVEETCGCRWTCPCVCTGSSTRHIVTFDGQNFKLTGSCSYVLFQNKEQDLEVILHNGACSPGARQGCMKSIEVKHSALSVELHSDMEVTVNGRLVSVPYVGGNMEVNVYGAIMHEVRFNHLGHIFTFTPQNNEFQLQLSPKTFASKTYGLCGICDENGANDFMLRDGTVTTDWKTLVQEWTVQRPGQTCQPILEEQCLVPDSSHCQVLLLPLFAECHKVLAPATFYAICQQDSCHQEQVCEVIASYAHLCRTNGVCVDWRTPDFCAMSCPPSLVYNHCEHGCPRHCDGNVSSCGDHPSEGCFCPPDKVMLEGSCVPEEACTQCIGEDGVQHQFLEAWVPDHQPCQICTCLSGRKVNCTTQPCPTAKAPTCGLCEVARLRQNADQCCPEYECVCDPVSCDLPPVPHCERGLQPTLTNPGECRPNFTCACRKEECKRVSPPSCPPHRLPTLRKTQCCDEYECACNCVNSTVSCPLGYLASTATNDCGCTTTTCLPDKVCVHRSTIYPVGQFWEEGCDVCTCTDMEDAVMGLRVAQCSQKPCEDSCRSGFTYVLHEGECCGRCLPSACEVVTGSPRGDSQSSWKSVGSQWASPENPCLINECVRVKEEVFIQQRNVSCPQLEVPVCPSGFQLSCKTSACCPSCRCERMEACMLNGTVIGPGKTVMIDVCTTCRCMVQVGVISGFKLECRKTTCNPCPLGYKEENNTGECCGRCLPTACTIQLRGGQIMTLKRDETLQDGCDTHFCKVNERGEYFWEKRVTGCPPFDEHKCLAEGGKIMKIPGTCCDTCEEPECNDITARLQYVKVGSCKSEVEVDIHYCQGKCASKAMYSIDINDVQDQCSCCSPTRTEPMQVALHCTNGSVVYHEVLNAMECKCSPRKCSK
Binder,Kd [1] [nM],binding result [3],further results
"Recombinant SIG-5 Fc-fusion protein (R&D Systems) (Fc fusion, Bought from R&D Systems; Held on the plate by protein A; also called SIGLEC 5; not shown: Fc part of the bought fusion protein) EKPVYELQVQKSVTVQEGLCVLVPCSFSYPWRSWYSSPPLYVYWFRDGEIPYYAEVVATNNPDRRVKPETQGRFRLLGDVQKKNCSLSIGDARMEDTGSYFFRVERGRDVKYSYQQNKLNLEVTALIEKPDIHFLEPLESGRPTRLSCSLPGSCEAGPPLTFSWTGNALSPLDPETTRSSELTLTPRPEDHGTNLTCQMKRQGAQVTTERTVQLNVSYAPQTITIFRNGIALEILQNTSYLPVLEGQALRLLCDAPSNPPAHLSWFQGSPALNATPISNTGILELRRVRSAEEGGFTCRAQHPLGFLQIFLNLSVYSLPQLLGPSCSWEAEGLHCRCSFRARPAPSLCWRLEEKPLEGNSSQGSFKVNSSSAGPWANSSLILHGGLSSDLKVSCKAWNIYGSQSGSVLLLQGRSNLGT",494,no binding (tested: 1 µg/mL),Kd [2]: 494 nM
"Recombinant SIG-7 Fc-fusion protein (R&D Systems) (Fc fusion, Bought from R&D Systems; Held on the plate by protein A; also called SIGLEC 7; not shown: Fc part of the bought fusion protein) QKSNRKDYSLTMQSSVTVQEGMCVHVRCSFSYPVDSQTDSDPVHGYWFRAGNDISWKAPVATNNPAWAVQEETRDRFHLLGDPQTKNCTLSIRDARMSDAGRYFFRMEKGNIKWNYKYDQLSVNVTALTHRPNILIPGTLESGCFQNLTCSVPWACEQGTPPMISWMGTSVSPLHPSTTRSSVLTLIPQPQHHGTSLTCQVTLPGAGVTTNRTIQLNVSYPPQNLTVTVFQGEGTASTALGNSSSLSVLEGQSLRLVCAVDSNPPARLSWTWRSLTLYPSQPSNPLVLELQVHLGDEGEFTCRAQNSLGSQHVSLNLSLQQEYTGKMRPVSGVLLGAVG",371,no binding (tested: 1 µg/mL),Kd [4]: 371 nM
"Recombinant SIG-9 Fc-fusion protein (R&D Systems) (Fc fusion, Bought from R&D Systems; Held on the plate by protein A; also called SIGLEC 9; not shown: Fc part of the bought fusion protein) QTSKLLTMQSSVTVQEGLCVHVPCSFSYPSHGWIYPGPVVHGYWFREGANTDQDAPVATNNPARAVWEETRDRFHLLGDPHTKNCTLSIRDARRSDAGRYFFRMEKGSIKWNYKHHRLSVNVTALTHRPNILIPGTLESGCPQNLTCSVPWACEQGTPPMISWIGTSVSPLDPSTTRSSVLTLIPQPQDHGTSLTCQVTFPGASVTTNKTVHLNVSYPPQNLTMTVFQGDGTVSTVLGNGSSLSLPEGQSLRLVCAVDAVDSNPPARLSLSWRGLTLCPSQPSNPGVLELPWVHLRDAAEFTCRAQNPLGSQQVYLNVSLQSKATSGVTQG",591,no binding (tested: 1 µg/mL),Kd [5]: 591 nM
"FVIII (Nuwiq, Octapharma) (other, UniProt P00451 20-2351, looked up, Commercial product; also called recombinant FVIII; factor VIII) ATRRYYLGAVELSWDYMQSDLGELPVDARFPPRVPKSFPFNTSVVYKKTLFVEFTDHLFNIAKPRPPWMGLLGPTIQAEVYDTVVITLKNMASHPVSLHAVGVSYWKASEGAEYDDQTSQREKEDDKVFPGGSHTYVWQVLKENGPMASDPLCLTYSYLSHVDLVKDLNSGLIGALLVCREGSLAKEKTQTLHKFILLFAVFDEGKSWHSETKNSLMQDRDAASARAWPKMHTVNGYVNRSLPGLIGCHRKSVYWHVIGMGTTPEVHSIFLEGHTFLVRNHRQASLEISPITFLTAQTLLMDLGQFLLFCHISSHQHDGMEAYVKVDSCPEEPQLRMKNNEEAEDYDDDLTDSEMDVVRFDDDNSPSFIQIRSVAKKHPKTWVHYIAAEEEDWDYAPLVLAPDDRSYKSQYLNNGPQRIGRKYKKVRFMAYTDETFKTREAIQHESGILGPLLYGEVGDTLLIIFKNQASRPYNIYPHGITDVRPLYSRRLPKGVKHLKDFPILPGEIFKYKWTVTVEDGPTKSDPRCLTRYYSSFVNMERDLASGLIGPLLICYKESVDQRGNQIMSDKRNVILFSVFDENRSWYLTENIQRFLPNPAGVQLEDPEFQASNIMHSINGYVFDSLQLSVCLHEVAYWYILSIGAQTDFLSVFFSGYTFKHKMVYEDTLTLFPFSGETVFMSMENPGLWILGCHNSDFRNRGMTALLKVSSCDKNTGDYYEDSYEDISAYLLSKNNAIEPRSFSQNSRHQAYRYRRGEITRTTLQSDQEEIDYDDTISVEMKKEDFDIYDEDENQSPRSFQKKTRHYFIAAVERLWDYGMSSSPHVLRNRAQSGSVPQFKKVVFQEFTDGSFTQPLYRGELNEHLGLLGPYIRAEVEDNIMVTFRNQASRPYSFYSSLISYEEDQRQGAEPRKNFVKPNETKTYFWKVQHHMAPTKDEFDCKAWAYFSDVDLEKDVHSGLIGPLLVCHTNTLNPAHGRQVTVQEFALFFTIFDETKSWYFTENMERNCRAPCNIQMEDPTFKENYRFHAINGYIMDTLPGLVMAQDQRIRWYLLSMGSNENIHSIHFSGHVFTVRKKEEYKMALYNLYPGVFETVEMLPSKAGIWRVECLIGEHLHAGMSTLFLVYSNKCQTPLGMASGHIRDFQITASGQYGQWAPKLARLHYSGSINAWSTKEPFSWIKVDLLAPMIIHGIKTQGARQKFSSLYISQFIIMYSLDGKKWQTYRGNSTGTLMVFFGNVDSSGIKHNIFNPPIIARYIRLHPTHYSIRSTLRMELMGCDLNSCSMPLGMESKAISDAQITASSYFTNMFATWSPSKARLHLQGRSNAWRPQVNNPKEWLQVDFQKTMKVTGVTTQGVKSLLTSMYVKEFLISSSQDGHQWTLFFQNGKVKVFQGNQDSFTPVVNSLDPPLLTRYLRIHPQSWVHQIALRMEVLGCEAQDLY",–,–,Kd [6]: 0.3 nM
"Cluster 2 fragment (tryptic glycopeptide of plasma derived vWF, AA 674 to 728/729) (also: natural O-glycans (sialylated core 2), sites not given here, also called Cluster II; O-glycosylation Cluster II) peptide: AFVLSSVDELEQQRDEIVSYLC(Maleimide‑PEG2‑Biotin)DLAPEAPPPTLPPDMAQVTVGPGLLGVSTLGPKR",–,–,binding result [7]: no binding (tested: 4 µg/mL)

# From patent US20210275644A1 (OCTAPHARMA, published 2021)
